Source: article PMC8940645

Columns and labels:
[1] = confocal immunofluorescence, giantin co-staining; settings: glycan lost; control: wild type
[2] = active lysate incubation, R4-ICD/FGFR4 immunoblot ratio; settings: glycan lost; control: wild type
[3] = kifunensine 5 μM time course, R4-ICD immunoblot; settings: glycan changed form; control: 0 h kifunensine
[4] = NGI-1 overnight, R4-ICD immunoblot; settings: glycan lost; control: vehicle

FGFR4: N311Q
localisation_or_trafficking [1]: no change
other: proteolytic processing, other: relative scale 0 to 3+ [2]: decreases, ++ vs +++

FGFR4: kifunensine 8 h
other: proteolytic processing [3]: increases

FGFR4: N322Q
localisation_or_trafficking [1]: no change

FGFR4: NGI-1 10 μM
other: proteolytic processing [4]: increases

FGFR4: N290Q
localisation_or_trafficking [1]: no change
other: proteolytic processing, other: relative scale 0 to 3+ [2]: abolishes, 0 vs +++

FGFR4: NGI-1 100 μM
other: proteolytic processing [4]: no change

FGFR4: kifunensine 16 h
other: proteolytic processing [3]: no change
